In article PMC5945783, “Relationship Between Homodimeric Glucocorticoid Receptor and Transcriptional Regulation Assessed via an In Vitro Fluorescence Correlation Spectroscopy-Microwell System” (Scientific Reports, 2018):

How the values were obtained:
[1] = molecular target: the molecule itself; assay: fluorescence correlation spectroscopy (FCS), particle brightness (counts per particle) analysis; FCS-microwell system: single transfected U2OS cell, 500 nM Dex at 37 °C for 20 min, then lysed in a 113 pL PDMS microwell; lysis buffer with 0.1% SDS and Benzonase; bimolecular reaction model fitted in the 0-50 nM range; dimer to monomers
[2] = molecular target: the molecule itself; assay: fluorescence correlation spectroscopy (FCS), particle brightness (counts per particle) analysis; FCS-microwell system: single transfected U2OS cell lysed in a 113 pL PDMS microwell; absence of Dex; lysis buffer with 0.1% SDS and Benzonase; bimolecular reaction model fitted in the 0-50 nM range; dimer to monomers

| Protein | Kd [1] [nM] | Kd [2] [nM] |
| --- | --- | --- |
| EGFP-fused human glucocorticoid receptor α C421G mutant (natural protein, UniProt P04150 1-777, looked up, glucocorticoid receptor α, human, with C421G; also called EGFP-GR/C421G; GR/C421G; source: U2OS, transfected (ViaFect), in single-cell lysate) MDSKESLTPGREENPSSVLAQERGDVMDFYKTLRGGATVKVSASSPSLAVASQSDSKQRRLLVDFPKGSVSNAQQPDLSKAVSLSMGLYMGETETKVMGNDLGFPQQGQISLSSGETDLKLLEESIANLNRSTSVPENPKSSASTAVSAAPTEKEFPKTHSDVSSEQQHLKGQTGTNGGNVKLYTTDQSTFDILQDLEFSSGSPGKETNESPWRSDLLIDENCLLSPLAGEDDSFLLEGNSNEDCKPLILPDTKPKIKDNGDLVLSSPSNVTLPQVKTEKEDFIELCTPGVIKQEKLGTVYCQASFPGANIIGNKMSAISVHGVSTSGGQMYHYDMNTASLSQQQDQKPIFNVIPPIPVGSENWNRCQGSGDDNLTSLGTLNFPGRTVFSNGYSSPSMRPDVSSPPSSSSTATTGPPPKLGLVCSDEASGCHYGVLTCGSCKVFFKRAVEGQHNYLCAGRNDCIIDKIRRKNCPACRYRKCLQAGMNLEARKTKKKIKGIQQATTGVSQETSENPGNKTIVPATLPQLTPTLVSLLEVIEPEVLYAGYDSSVPDSTWRIMTTLNMLGGRQVIAAVKWAKAIPGFRNLHLDDQMTLLQYSWMFLMAFALGWRSYRQSSANLLCFAPDLIINEQRMTLPCMYDQCKHMLYVSSELHRLQVSYEEYLCMKTLLLLSSVPKDGLKSQELFDEIRMTYIKELGKAIVKREGNSSQNWQRFYQLTKLLDSMHEVVENLLNYCFQTFLDKTMSIEFPEMLAEIITNQIPKYSNGNIKKLLFHQK | 220 | 400 |
| EGFP-fused human glucocorticoid receptor α A458T mutant (natural protein, UniProt P04150 1-777, looked up, glucocorticoid receptor α, human, with A458T; also called EGFP-GR/A458T; GR/A458T; source: U2OS, transfected (ViaFect), in single-cell lysate) MDSKESLTPGREENPSSVLAQERGDVMDFYKTLRGGATVKVSASSPSLAVASQSDSKQRRLLVDFPKGSVSNAQQPDLSKAVSLSMGLYMGETETKVMGNDLGFPQQGQISLSSGETDLKLLEESIANLNRSTSVPENPKSSASTAVSAAPTEKEFPKTHSDVSSEQQHLKGQTGTNGGNVKLYTTDQSTFDILQDLEFSSGSPGKETNESPWRSDLLIDENCLLSPLAGEDDSFLLEGNSNEDCKPLILPDTKPKIKDNGDLVLSSPSNVTLPQVKTEKEDFIELCTPGVIKQEKLGTVYCQASFPGANIIGNKMSAISVHGVSTSGGQMYHYDMNTASLSQQQDQKPIFNVIPPIPVGSENWNRCQGSGDDNLTSLGTLNFPGRTVFSNGYSSPSMRPDVSSPPSSSSTATTGPPPKLCLVCSDEASGCHYGVLTCGSCKVFFKRAVEGQHNYLCTGRNDCIIDKIRRKNCPACRYRKCLQAGMNLEARKTKKKIKGIQQATTGVSQETSENPGNKTIVPATLPQLTPTLVSLLEVIEPEVLYAGYDSSVPDSTWRIMTTLNMLGGRQVIAAVKWAKAIPGFRNLHLDDQMTLLQYSWMFLMAFALGWRSYRQSSANLLCFAPDLIINEQRMTLPCMYDQCKHMLYVSSELHRLQVSYEEYLCMKTLLLLSSVPKDGLKSQELFDEIRMTYIKELGKAIVKREGNSSQNWQRFYQLTKLLDSMHEVVENLLNYCFQTFLDKTMSIEFPEMLAEIITNQIPKYSNGNIKKLLFHQK | 370 | 390 |
